{"source": "patent US20200102355A1", "molecules": {"B1": {"name": "tobacco etch virus protease (TEVp) (protein)", "chain": "GESLFKGPRDYNPISSTICHLTNESDGHTTSLYGIGFGPFIITNKHLFRRNNGTLLVQSLHGVFKVKNTTTLQQHLIDGRDMIIIRMPKDFPPFPQKLKFREPQREERICLVTTNFQTKSMSSMVSDTSCTFPSSDGIFWKHWIQTKDGQCGSPLVSTRDGFIVGIHSASNFTNTNNYFTSVPKNFMELLTNQEAQQWVSGWRLNADSVLWGGHKVFMSKPEEPFQPVKEATQLMN"}}, "key": {"[1]": {"molecular_target": "TST (BMC-T1 / HO-5812 with SpyTag inserted on the lumenal side, flanked by six residue glycine-serine linkers) (Haliangium ochraceum)", "sequence (D0LHE3 whole entry)": "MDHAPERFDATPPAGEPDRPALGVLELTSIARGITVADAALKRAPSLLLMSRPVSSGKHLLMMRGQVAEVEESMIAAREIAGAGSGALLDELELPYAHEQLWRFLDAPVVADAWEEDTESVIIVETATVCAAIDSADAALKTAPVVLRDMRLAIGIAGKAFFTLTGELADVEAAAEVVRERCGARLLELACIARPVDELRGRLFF", "assay": "calculated from fluorescence intensity of purified shells"}, "[2]": {"molecular_target": "TSC (BMC-T1 / HO-5812 with SpyCatcherΔN1ΔC2 inserted on the lumenal side, flanked by six residue glycine-serine linkers) (Haliangium ochraceum) (UniProt D0LHE3)", "assay": "calculated from fluorescence intensity of purified shells"}, "[3]": {"molecular_target": "STprobe (SpyTag-mTurquoise2-TEV protease cleavage site-tetracysteine motif-6xHis permeability probe)"}}}
{"molecule": "SCcfp (6xHis-SpyCatcher-mTurquoise2)", "values": [{"measurement": "copies of cfp cargo per shell (copies per shell)", "setting": "[1]", "result": 58}]}
{"molecule": "STcfp (mTurquoise2 with N-terminal 13 residue SpyTag and C-terminal hexahistidine tag)", "values": [{"measurement": "copies of cfp cargo per shell (copies per shell)", "setting": "[2]", "result": 73}]}
{"molecule": "B1", "values": [{"measurement": "fluorescence emission shift (FRET of mTurquoise2 to FlAsH) reverted on TEVp addition, probe in uncapped shells", "setting": "[3]", "result": "Addition of the FlAsH reagent to the shells results in a fluorescence emission shift which is reverted upon TEVp addition"}]}
